In one test the target is xNup93-Nb1t. The test can be described thus: BLI. (Biolayer interferometry detects binding as a change in optical thickness at a sensor tip.)
The next test addresses xhNup93-Nb3t. The test can be described thus: BLI.

B1: recombinant Xenopus Nup93 target (BLI) (natural protein)
chain: MDGEGFGELLQQAEQLAAETEGVTELPHVERNLQEIQQAGERLRSKTMTRTSQESANVKASVLLGSRGLDISHISQRLESLSAATTFEPLEPVKDTDIQGFLKNEKDNALLSAIEESRKRTFVMAEEYHRESMLVEWEQVKQRVLHTLLASGEDALDFTQESETSYISESGAPGRSSLDNVEMAYARQMYMYNEKVVSGHLQPSLVDLCTEAAERLDDKNVSDLWVMVKQMTDVPLIPASDTLKSRCSGQMQMAFVRQALNYLEQSYKNYTLISVFANLQQAQLGGVPGTYNLVRSFLNIRLPTPIPGLQDGEIEGYPVWALIYYCMRCGDLMAAQQVVNRAQHQLGDFKNCFQEYIHNKDRRLSPTTENKLRLHYRRAVRASTDPYKRAVYCIIGRCDVSDNHSEVADKTEDYLWLKLSQVCFEDEANSSPQDRLTLPQFQKQLFEDYGESHFAVNQQPYLYFQVLFLTAQFEAAIAFLFRLERTRCHAVHVALALFELKLLLKSTGQSAQLLSQEPGEPQGVRRLNFIRLLMLYTRKFEPTDPREALQYFYFLRNEKDNQGESMFLRCVSELVIESREFDMLLGKLEKDGSRKPGAIDKFTRDTKTIINKVASVAENKGLFEEAAKLYDLAKNPDKVLELTNKLLSPVVSQISAPQSNRERLKNMALAIAERYKSQGVSAEKSINSTFYLLLDLITFFDEYHAGHIDLSFDVIERLKLVPLSQDSVEERVAAFRNFSDEIRHNLSEILLATMNILFTQYKRLKGSGPTTLGRPQRVQEDKDSVLRSQARALITFAGMIPYRMSGDTNARLVQMEVLMN
For B1, the results for the Kd in the test with xNup93-Nb1t and with xhNup93-Nb3t were 0.1 nM and under 0.01 nM, respectively.

These data come from paper PMC11148069 (2024).
